Values quoted from earlier work as cited in paper PMC9395234.
pKd: −log10 of the molar value.

Target: C4BP (Homo sapiens) (UniProt P04003)
Sequence of UniProt P04003 (P04003 49-597, chain 1 of 2): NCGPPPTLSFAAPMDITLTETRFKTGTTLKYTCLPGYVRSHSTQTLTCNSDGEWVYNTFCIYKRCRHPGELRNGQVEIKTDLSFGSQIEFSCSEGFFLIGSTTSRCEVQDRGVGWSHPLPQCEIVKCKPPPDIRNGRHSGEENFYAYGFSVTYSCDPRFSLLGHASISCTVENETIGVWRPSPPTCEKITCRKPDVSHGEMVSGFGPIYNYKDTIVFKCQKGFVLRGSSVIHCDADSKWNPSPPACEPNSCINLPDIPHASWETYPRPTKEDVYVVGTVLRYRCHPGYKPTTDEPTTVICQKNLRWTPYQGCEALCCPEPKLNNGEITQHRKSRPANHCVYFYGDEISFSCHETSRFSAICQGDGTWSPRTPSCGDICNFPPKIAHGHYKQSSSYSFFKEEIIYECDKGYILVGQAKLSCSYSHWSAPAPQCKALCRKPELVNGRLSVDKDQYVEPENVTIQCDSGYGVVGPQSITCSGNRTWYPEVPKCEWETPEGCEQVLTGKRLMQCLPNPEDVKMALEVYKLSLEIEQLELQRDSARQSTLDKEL
Sequence of UniProt P04003 (P20851 18-252, chain 2 of 2, further chain): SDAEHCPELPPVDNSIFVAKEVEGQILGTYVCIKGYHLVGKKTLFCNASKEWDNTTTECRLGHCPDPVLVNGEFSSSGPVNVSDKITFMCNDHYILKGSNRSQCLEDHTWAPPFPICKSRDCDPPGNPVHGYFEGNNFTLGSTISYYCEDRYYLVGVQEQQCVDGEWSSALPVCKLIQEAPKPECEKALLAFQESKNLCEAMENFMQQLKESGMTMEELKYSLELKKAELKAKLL

With Protein S (from UniProt P07225) as the substance, how does the pKd read?
Its pKd is 10.00.
